Assay results taken from article PMC8789055, “Structural and biochemical characterization of human Schlafen 5”.

Experiments:
[1] = target: T1, SLFN5 1-336 (Schlafen core domain) (Homo sapiens, UniProt Q08AF3 1-336); assay: fluorescence anisotropy; FA: 2x buffer 100 mM HEPES pH 8.0, 100 mM NaCl mixed 1:1 with 100 nM (final) FAM ligand, 30 min on ice; EMSA: 25 mM HEPES pH 7.0, 60 mM NaCl, 5% glycerol, 2 mM; details: protein: recombinant, tags: C-terminal His6
T1 sequence: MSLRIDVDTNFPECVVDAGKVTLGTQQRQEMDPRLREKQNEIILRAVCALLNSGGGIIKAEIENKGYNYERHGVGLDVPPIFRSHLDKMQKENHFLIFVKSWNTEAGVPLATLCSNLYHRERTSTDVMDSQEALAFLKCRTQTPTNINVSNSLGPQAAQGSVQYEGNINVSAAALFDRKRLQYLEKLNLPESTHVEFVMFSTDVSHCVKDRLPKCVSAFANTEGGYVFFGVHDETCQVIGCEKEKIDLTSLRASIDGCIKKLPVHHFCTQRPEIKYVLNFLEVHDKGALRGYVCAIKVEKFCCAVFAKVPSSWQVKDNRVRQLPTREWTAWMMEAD

SLFN5 full length [2] = target: T2, SLFN5 full length (Homo sapiens, UniProt Q08AF3 1-891); assay: competition EMSA; with tRNASer, 20 nM each; comparable affinities; FA: 2x buffer 100 mM HEPES pH 8.0, 100 mM NaCl mixed 1:1 with 100 nM (final) FAM ligand, 30 min on ice; EMSA: 25 mM HEPES pH 7.0, 60 mM NaCl, 5% glycerol, 2 mM; details: protein: recombinant; tags: N-terminal double FLAG, HRV 3C site; label: 5'-Cy5 (fwd); blunt
T2 sequence: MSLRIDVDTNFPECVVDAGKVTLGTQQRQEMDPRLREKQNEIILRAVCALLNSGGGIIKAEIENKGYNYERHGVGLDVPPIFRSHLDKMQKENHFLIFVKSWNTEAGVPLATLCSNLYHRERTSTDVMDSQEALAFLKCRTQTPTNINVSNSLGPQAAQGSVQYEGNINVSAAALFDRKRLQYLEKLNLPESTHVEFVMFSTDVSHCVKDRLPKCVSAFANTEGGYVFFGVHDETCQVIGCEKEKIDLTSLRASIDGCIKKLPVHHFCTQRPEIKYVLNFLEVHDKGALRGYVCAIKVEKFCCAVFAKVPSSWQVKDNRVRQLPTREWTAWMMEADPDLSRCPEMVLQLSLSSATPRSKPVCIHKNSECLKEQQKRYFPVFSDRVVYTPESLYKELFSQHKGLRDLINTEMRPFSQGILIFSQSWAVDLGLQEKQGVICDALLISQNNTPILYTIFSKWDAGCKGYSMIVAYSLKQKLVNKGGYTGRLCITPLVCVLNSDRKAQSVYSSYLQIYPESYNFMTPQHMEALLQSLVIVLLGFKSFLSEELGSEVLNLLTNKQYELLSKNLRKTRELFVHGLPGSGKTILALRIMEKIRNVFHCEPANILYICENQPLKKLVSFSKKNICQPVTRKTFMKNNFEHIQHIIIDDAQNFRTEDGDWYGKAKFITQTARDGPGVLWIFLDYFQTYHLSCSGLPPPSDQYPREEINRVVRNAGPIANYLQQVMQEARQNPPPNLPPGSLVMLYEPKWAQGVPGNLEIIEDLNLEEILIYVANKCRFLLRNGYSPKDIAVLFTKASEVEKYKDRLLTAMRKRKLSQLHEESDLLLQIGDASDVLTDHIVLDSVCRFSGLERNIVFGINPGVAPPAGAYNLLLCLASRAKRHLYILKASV

SLFN5 full length [3] = target: T2, SLFN5 full length; assay: competition EMSA; with tRNASer, 20 nM each; 196 bp DNA preferred; FA: 2x buffer 100 mM HEPES pH 8.0, 100 mM NaCl mixed 1:1 with 100 nM (final) FAM ligand, 30 min on ice; EMSA: 25 mM HEPES pH 7.0, 60 mM NaCl, 5% glycerol, 2 mM; details: protein: recombinant; tags: N-terminal double FLAG, HRV 3C site; label: 5'-Cy5 (rev primer); blunt

B1: 60 dT (ssDNA)
DNA: TTTTTTTTTTTTTTTTTTTTTTTTTTTTTTTTTTTTTTTTTTTTTTTTTTTTTTTTTTTT
- Kd ([1]; label: 5'-FAM): 7.8 µM

B2: 60 bp DNA (60bp_A/T_GC) (dsDNA)
DNA 1: TTTTTTTTTTTTTTTTTTTTTTTTTTTTTTTTTTTTTTTTTTTTTTTTTGCTTTTTTTTT
DNA 2: AAAAAAAAAGCAAAAAAAAAAAAAAAAAAAAAAAAAAAAAAAAAAAAAAAAAAAAAAAAA
- Kd ([1]; label: 5'-FAM (fwd), blunt): 2.5 µM

B3: 30 dT (ssDNA)
DNA: TTTTTTTTTTTTTTTTTTTTTTTTTTTTTT
- Kd ([1]; label: 5'-FAM): 11 µM

B4: 50 bp DNA (dsDNA)
DNA 1: AATTGGTCGTAGCAAGCTCTAGCACCGCTTAAACGCACGTACGCGCTGTC
DNA 2: GACAGCGCGTACGTGCGTTTAAGCGGTGCTAGAGCTTGCTACGACCAATT
- binding result (SLFN5 full length [2]): binds

B5: 196 bp DNA (0N49) (dsDNA)
DNA 1: CTGGAGAATCCCGGTGCCGAGGCCGCTCAATTGGTCGTAGCAAGCTCTAGCACCGCTTAAACGCACGTACGCGCTGTCCCCCGCGTTTTAACCGCCAAGGGGATTACTCCCTAGTCTCCAGGCACGTGTCAGATATATACATCCTGTGCATGTATTGAACAGCGACCTTGCCGGTGCCAGTCGGATAGTGTTCCGA
DNA 2: TCGGAACACTATCCGACTGGCACCGGCAAGGTCGCTGTTCAATACATGCACAGGATGTATATATCTGACACGTGCCTGGAGACTAGGGAGTAATCCCCTTGGCGGTTAAAACGCGGGGGACAGCGCGTACGTGCGTTTAAGCGGTGCTAGAGCTTGCTACGACCAATTGAGCGGCCTCGGCACCGGGATTCTCCAG
- binding result (SLFN5 full length [3]): binds

B6: 30 rU (ssRNA)
RNA: UUUUUUUUUUUUUUUUUUUUUUUUUUUUUU
- Kd ([1]; label: 5'-FAM): 5.1 µM

B7: tRNA(Ser) (structured_RNA)
RNA: GUAGUCGUGGCCGAGUGGUUAAGGCGAUGGACUUGAAAUCCAUUGUGGUUUCCCCGCGCAGGUUCGAAUCCUGCCGACUACGCCA
- Kd ([1]; label: 5'-FAM, tRNA fold): 4.3 µM

B8: 60 rU (ssRNA)
RNA: UUUUUUUUUGCUUUUUUUUUUUUUUUUUUUUUUUUUUUUUUUUUUUUUUUUUUUUUUUUU
- Kd ([1]; label: 5'-FAM): 3.6 µM
